According to publication PMC9242856, “Structural basis of sodium-dependent bile salt uptake into the liver” (Nature, 2022):

Experiments:
[1] = molecular target: T1, wild-type human Na+-taurocholate co-transporting polypeptide (NTCP) expressed on HEK 293F cells (human, UniProt Q14973); test: fluorescent ligand labelling of cells (plate reader); HEK 293F cells expressing NTCP constructs in PBS; labelled with 10 nM (wild-type NTCP) or 50 nM (NTCPEM) purified myr-preS1_48-GFP for 30 min; where tested, pre-incubation with 10 uM nanobody for 1.5 h; GFP fluorescence, excitation 470 nm, emission 508 nm; conditions: one partner purified
T1 construct: Na+-taurocholate co-transporting polypeptide (NTCP, SLC10A1), human, wild type; also called wild-type NTCP; SLC10A1; source: HEK 293F, transient transfection, on cells

[2] = molecular target: NTCPEM expressed on HEK 293F cells (human) (UniProt Q14973)
Chain of NTCPEM expressed on HEK 293F cells (human) (Q14973 other isoform, or with tags, fused parts or gaps, change not shown): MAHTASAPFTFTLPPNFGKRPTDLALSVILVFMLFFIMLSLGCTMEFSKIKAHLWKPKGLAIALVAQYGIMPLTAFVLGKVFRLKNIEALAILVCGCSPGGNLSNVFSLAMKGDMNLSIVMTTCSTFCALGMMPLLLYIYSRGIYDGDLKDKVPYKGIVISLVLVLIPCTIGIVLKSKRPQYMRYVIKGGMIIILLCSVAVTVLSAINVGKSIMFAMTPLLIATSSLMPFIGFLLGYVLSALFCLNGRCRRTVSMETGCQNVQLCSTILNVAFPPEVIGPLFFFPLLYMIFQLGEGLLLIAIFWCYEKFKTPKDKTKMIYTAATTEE

T1 sequence (Q14973 whole entry): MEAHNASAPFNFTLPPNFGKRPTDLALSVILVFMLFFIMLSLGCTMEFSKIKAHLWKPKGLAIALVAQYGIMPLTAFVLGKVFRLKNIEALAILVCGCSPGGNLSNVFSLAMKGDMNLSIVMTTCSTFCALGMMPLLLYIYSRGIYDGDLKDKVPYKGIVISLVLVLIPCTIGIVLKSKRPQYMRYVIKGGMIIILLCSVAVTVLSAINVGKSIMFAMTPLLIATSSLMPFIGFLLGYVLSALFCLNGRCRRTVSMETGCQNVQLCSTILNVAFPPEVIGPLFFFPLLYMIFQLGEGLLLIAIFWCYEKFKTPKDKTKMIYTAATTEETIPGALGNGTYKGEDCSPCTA

Binder | binding result [1] | IC50 of inhibition of Na+-induced uptake of the fluorescent substrate tauro-nor-THCA-24-DBD by cells expressing NTCPEM [2]
Nanobody 87 (VHH, llama (Lama glama) nanobody raised against NTCPCO; the nanobody chain of PDB 7PQG; Tags are those of the phage display vector pMESy4 as told for the library; also called Nb87; source: E. coli periplasm, purified (Ni-NTA, SEC)) VHH: QVQLVESGGGLVQAGGSLRLSCAVSGRTTANYNMGWFRQAPGKEREFVAGIKWSSGSTYVADSAKGRFTISRDNAKNSVYLQMDSLKPEDTALYYCAANYYGVSWFLISPSSYDYWGQGTQVTVSS | binds | 180 nM
Nanobody 91 (VHH) VHH: QVQLVESGGGLVEAGGSLRLSCAASTNLRSYAMAWFRQAPGKEREFVSFINWNYGNTRYADSVKGRFTISRDNAKITVYLQMNSLKPEDTAVYYCAAATIGRLAGIDSTTLYDYWGQGTQVTVSS | – | 34 nM
